# Test results as given in patent US8846873B2, “Antibodies directed to GPNMB and uses thereof” (Celldex Therapeutics, Inc., priority 2004, dated 2014).
# T1: GPNMB (Homo sapiens, UniProt Q14956)
# T1 construct: made in house; host or cells: HEK 293
# T1 sequence (Q14956 23-492): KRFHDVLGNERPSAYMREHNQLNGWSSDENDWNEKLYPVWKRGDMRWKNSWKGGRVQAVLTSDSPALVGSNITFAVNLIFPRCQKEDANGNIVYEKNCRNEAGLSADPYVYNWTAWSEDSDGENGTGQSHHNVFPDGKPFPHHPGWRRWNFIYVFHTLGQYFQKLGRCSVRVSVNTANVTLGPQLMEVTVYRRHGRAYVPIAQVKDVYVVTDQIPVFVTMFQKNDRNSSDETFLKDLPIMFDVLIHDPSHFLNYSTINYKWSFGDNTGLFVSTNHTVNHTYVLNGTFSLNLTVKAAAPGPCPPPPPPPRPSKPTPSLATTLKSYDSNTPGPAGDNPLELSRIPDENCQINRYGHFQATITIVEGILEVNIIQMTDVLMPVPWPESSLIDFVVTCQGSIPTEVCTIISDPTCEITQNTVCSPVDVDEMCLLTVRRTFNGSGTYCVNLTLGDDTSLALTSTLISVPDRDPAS
# B1: Mab1.15.1 (protein, listed as Homo sapiens)
# chain: QVQLQESGPGLVKPSQTLSLTCTVSGGSISSFNYYWSWIRHHPGKGLEWIGYIYYSGSTYSNPSLKSRVTISVDTSKNQFSLTLSSVTAADTAVYYCARGYNWNYFDYWGQGTLVTVSSA
# Experiments:
# [1] = system: SK-MEL-2 melanoma xenografts; experiment: Human SK-MEL-2 melanoma xenograft in athymic mice; assay type: in vivo; conditions: CR011-ONC-1, CR011-vcMMAE 5 mg/kg/treatment i.v. q4d x4, components at doses identical to those in the immunoconjugate
# Procedure: Test Animals: Five- to 6-week old athymic mice (CD-1 nu/nu females), used for human tumor xenografts, were obtained from Harlan Laboratories (Indianapolis, Ind.). Animals were housed in specific pathogen-free conditions, according to the guidelines of the Association for Assessment and Accreditation of Laboratory Animal Care International (AAALAC International). Test animals were provided pelleted food and water ad libitum and kept in a room with conditioned ventilation (HVAC), temperature (22°±2° C.), relative humidity (55%±15%), and photoperiod (12 hr). All studies were carried out with approved institutional animal care and use protocols.
# Human Melanoma Xenograft Models. The tumor inhibitory activity of the CR011-MMAE immunoconjugate was measured in an anti-tumor xenograft model using athymic mice, according to published methods (see Geran et al., Cancer Chemother. Rep. 3:1-104 (1972)). […] When tumors became established (10-20 days), the animals were pair-matched into groups (n=6 mice/group), and treatment was administered by intravenous injection (tail vein). […]
# The effects of treatment were monitored by repetitive tumor measurements across 2 diameters with Vernier calipers; tumor size (in mg) was calculated using a standard formula, (W^2×L)/2, assuming a specific gravity of 1.0. Tumor size and body weights were assessed twice weekly. […]
# GPNMB = target: T1, GPNMB; experiment: ELISA of hybridoma supernatants for binding to GPNMB
# Procedure: After 14 days of culture, hybridoma supernatants were screened for GPNMB specific monoclonal antibodies. In the Primary screen, the ELISA plates (Fisher, Cat. No. 12-565-136) were coated with 50 μL/well of GPNMB (1 μg/mL) in Coating Buffer (0.1 M Carbonate Buffer, pH 9.6, NaHCO3 8.4 g/L), then incubated at 4° C. overnight. After incubation, the plates were washed with Washing Buffer (0.05% Tween 20 in PBS) three times. 200 μL/well Blocking Buffer (0.5% BSA, 0.1% Tween 20, 0.01% Thimerosal in 1×PBS) were added and the plates were incubated at room temperature for 1 h. After incubation, the plates were washed with Washing Buffer three times. Aliquots (50 μL/well) of hybridoma supernatants and positive and negative controls were added, and the plates were incubated at room temperature for 2 h. The positive control used throughout was serum from the relevant GPNMB immunized XenoMouse® mouse and the negative control was serum from the KLH-immunized relevant strain of XenoMouse® mouse. After incubation, the plates were washed three times with Washing Buffer. 100 μL/well of detection antibody goat anti-huIgGfc-HRP (Caltag, Cat. No. H10507, using concentration was 1:2000 dilution) was added and the plates were incubated at room temperature for 1 hour. After incubation, the plates were washed three times with Washing Buffer. 100 μl/well of TMB (BioFX Lab. Cat. No. TMSK-0100-01) was added, and the plates were allowed to develop for about 10 minutes (until negative control wells barely started to show color). 50 μl/well stop solution (TMB Stop Solution (BioFX Lab. Cat. No. STPR-0100-01) was then added and the plates were read on an ELISA plate reader at a wavelength of 450 nm.
# Hybridoma supernatants were screened for binding to GPNMB by ELISA as described above in Example 2.
# SK-Mel-2 cells = experiment: Cell cycle analysis (BrdU / propidium iodide flow cytometry); assay type: cell-based, human; conditions: SK-Mel-2, 24 hour, 1000 ng/mL
# Procedure: (§1) Briefly, cells were pulsed at the indicated times with 30 μM of bromodeoxyuridine (BrdU, Sigma) for 30 min, harvested, fixed and permeabilized in methanol. Nascent DNA synthesis was detected by anti-bromodeoxyuridine-FITC (BD Biosciences, San Jose, Calif.) staining. Total DNA content was detected using propidium iodide (PI, Sigma). For apoptosis analysis, cells were treated as above and labeled with Annexin V-FITC followed by propidium iodide exclusion using the Annexin V-FITC Apoptosis Detection kit I (BD PharMingen, San Diego, Calif.) according to the manufacturer's protocols. Flow cytometry (as described in the previous Example) was used to assay both cell cycle and apoptosis studies.
# (§2) DNA synthesis and cell cycle progression were determined by flow cytometry (Table 52).
# TK-10 cells = experiment: as above; assay type: cell-based, human; conditions: TK-10, 24 hour, 1000 ng/mL
# Procedure: as §1, §2
molecule,measurement,setting,value
B1,tumor response,[1]; listed as CR011 antibody alone,lack of tumor growth inhibition
same,tumor response,[1]; listed as unconjugated CR011,lack of responses
same,Avg OD,GPNMB; 12.3 ng/mL,0.168
same,Avg OD,GPNMB; 37 ng/mL,0.381
same,Avg OD,GPNMB; 111 ng/mL,0.701
same,Avg OD,GPNMB; 333 ng/mL,0.902
same,Avg OD,GPNMB; 1 μg/mL,1.051
same,Avg OD,GPNMB; 3 μg/mL,1.159
same,% G1,SK-Mel-2 cells,63.6%
same,% G2/M,SK-Mel-2 cells,6.4%
same,% S-phase,SK-Mel-2 cells,25.2%
same,% Sub-G1,SK-Mel-2 cells,0.5%
same,% G1,TK-10 cells,42.0%
same,% G2/M,TK-10 cells,6.3%
same,% S-phase,TK-10 cells,39.8%
same,% Sub-G1,TK-10 cells,0.3%
